Reference: patent US20250101076A1

Molecular target: extracellular domain of the growth hormone receptor (human) (UniProt P10912)
Experiment: competition ELISA, plate coated with GHR extracellular domain, inhibition of biotin-hGH binding

UniProt P10912, sequence (P10912 19-264): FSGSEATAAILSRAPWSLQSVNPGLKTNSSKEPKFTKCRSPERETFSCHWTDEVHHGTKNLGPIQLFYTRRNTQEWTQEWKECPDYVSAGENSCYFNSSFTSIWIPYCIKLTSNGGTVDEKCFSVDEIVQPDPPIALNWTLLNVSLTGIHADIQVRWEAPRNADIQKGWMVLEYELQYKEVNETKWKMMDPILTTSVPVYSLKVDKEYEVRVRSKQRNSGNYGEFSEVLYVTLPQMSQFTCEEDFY

## pegvisomant (ligand)
  IC50: 137 nM
